# Experimental data from paper PMC10960814.
# What was measured:
# [1] = target: full-length human IR-A, Myc-tagged (pCS2-IR-A-Myc) (human) (UniProt P06213); assay: competition-binding assay (fluorescent insulin on bead-bound receptor); IR-A-Myc or IR-B-Myc held on anti-c-Myc magnetic beads; 1 nM Alexa Fluor labeled human insulin and the indicated amount of homemade IGF2, 4 °C, 14 h; 20 mM Hepes pH 7.4, 200 mM NaCl, 0.03% DDM, 0.003% CHS, 100 nM BSA; fluorescence of the eluate
# [2] = target: full-length human IR-B, Myc-tagged (pCS2-IR-B-Myc) (human) (UniProt P06213); assay: as above
# [3] = target: full-length human insulin receptor, B isoform (hIR-B), with a kinase-dead mutation, construct for structural studies (human); assay: cryo-EM structure; purified hIR-A or hIR-B dimer fraction (20 mM HEPES-Na pH 7.5, 400 mM NaCl, 0.03% DDM) with refolded IGF2 added at a 2:8 (m/m) ratio, 2 h; saturated IGF2
fold of binding affinity against IGF2 WT [1],fold of binding affinity against IGF2 WT [2],"stoichiometry N (IGF2 per IR dimer (class 1, symmetric)) [3]","stoichiometry N (IGF2 per IR dimer (class 2, asymmetric)) [3]",stoichiometry N ([3]; scale: IGF2 per IR dimer),Substance
3 fold,3 fold,,,,IGF2 R30A mutant (ligand)
,,4,3,2,"insulin-like growth factor 2 (IGF2), wild type, homemade (from UniProt P01344 25-91) (ligand)"
